Measured values: US20140314774A1 (UAB RESEARCH FOUNDATION, published 2014)
Each block holds one binder with its values, some of them ahead of it.

Experiments:
[1] = biological target: T1, recombinant soluble HER3 (extracellular domain) (UniProt P21860 20-643, limits assumed); assay: NRG1 competition ELISA on coated recombinant soluble HER3
T1 construct: extracellular domain; also called ERBB3

[2] = biological target: T2, HER3 on HER3-transfected SP 2/0 cells (human, UniProt P21860 20-1342); assay: flow cytometry, HER3-transfected SP2/0 cells stained with 1 µg/ml antibody, PE-goat anti-mouse IgG
T2 construct: whole, on cells; The flow cytometry text says only 'HER3 transfected SP2/0 cells'; also called human HER3 expressing SP 2/0 cells
Procedure: The average OD values of triplicates are presented. […] EGFR, HER2 or HER3-transfected SP 2/0 cells were stained with 1 μg/ml of purified antibody, followed by PE-goat anti-mouse IgG.
An ELISA plate was coated with 1 μg/ml of recombinant soluble EGFR, HER2, or the extracellular domain of HER3.

T1 sequence (P21860 20-643 limits assumed): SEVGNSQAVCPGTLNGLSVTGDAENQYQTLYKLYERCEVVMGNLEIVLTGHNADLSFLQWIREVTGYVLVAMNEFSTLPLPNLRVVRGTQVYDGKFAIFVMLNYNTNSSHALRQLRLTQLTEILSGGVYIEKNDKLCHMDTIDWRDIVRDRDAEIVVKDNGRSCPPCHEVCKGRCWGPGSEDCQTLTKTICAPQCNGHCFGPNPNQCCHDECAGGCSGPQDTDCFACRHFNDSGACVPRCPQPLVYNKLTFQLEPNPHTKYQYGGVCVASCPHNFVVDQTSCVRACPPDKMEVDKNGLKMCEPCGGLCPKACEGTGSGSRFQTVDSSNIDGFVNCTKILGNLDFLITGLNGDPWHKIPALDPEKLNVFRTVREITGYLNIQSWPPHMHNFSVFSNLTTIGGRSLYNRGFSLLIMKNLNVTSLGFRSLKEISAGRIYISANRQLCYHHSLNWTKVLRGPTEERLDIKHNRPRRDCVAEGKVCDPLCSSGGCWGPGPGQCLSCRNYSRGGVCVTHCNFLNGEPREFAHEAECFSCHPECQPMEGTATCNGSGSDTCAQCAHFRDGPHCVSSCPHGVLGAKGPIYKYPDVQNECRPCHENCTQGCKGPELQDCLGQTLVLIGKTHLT
T2 sequence (P21860 20-1342): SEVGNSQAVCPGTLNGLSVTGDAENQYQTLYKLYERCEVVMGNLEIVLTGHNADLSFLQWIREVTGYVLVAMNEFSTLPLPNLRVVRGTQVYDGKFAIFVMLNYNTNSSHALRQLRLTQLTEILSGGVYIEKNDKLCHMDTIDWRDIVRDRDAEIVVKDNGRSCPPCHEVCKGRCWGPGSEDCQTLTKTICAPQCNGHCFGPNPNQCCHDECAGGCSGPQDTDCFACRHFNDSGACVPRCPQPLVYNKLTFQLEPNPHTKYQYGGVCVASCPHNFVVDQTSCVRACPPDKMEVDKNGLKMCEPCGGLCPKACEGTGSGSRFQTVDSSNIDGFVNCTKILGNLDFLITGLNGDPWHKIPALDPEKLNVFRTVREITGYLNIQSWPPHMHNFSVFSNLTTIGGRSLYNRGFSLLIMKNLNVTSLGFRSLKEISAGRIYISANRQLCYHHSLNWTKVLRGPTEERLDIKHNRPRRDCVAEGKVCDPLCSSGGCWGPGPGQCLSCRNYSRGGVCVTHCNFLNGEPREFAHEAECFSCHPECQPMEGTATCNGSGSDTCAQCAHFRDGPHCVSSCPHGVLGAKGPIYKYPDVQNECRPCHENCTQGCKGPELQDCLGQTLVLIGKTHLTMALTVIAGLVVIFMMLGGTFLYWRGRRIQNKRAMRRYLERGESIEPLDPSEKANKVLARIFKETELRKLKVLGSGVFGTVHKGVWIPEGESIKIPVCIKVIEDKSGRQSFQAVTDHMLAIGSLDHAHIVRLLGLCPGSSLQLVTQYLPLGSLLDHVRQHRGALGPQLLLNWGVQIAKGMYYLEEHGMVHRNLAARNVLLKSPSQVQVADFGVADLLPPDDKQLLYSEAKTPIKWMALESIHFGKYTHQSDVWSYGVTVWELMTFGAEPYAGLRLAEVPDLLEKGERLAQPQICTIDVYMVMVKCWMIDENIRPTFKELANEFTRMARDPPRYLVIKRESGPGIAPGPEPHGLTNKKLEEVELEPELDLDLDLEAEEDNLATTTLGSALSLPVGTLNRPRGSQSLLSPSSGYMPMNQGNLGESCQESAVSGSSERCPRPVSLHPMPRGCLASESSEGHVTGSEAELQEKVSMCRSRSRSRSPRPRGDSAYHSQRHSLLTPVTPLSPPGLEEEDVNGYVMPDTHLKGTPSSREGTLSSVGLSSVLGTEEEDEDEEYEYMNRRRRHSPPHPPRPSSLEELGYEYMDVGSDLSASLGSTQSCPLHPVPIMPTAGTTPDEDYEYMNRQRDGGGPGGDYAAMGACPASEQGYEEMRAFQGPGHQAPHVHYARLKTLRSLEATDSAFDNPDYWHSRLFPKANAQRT

binding result [1]: binds
binding result [2]: binds
B1: 1A5 antibody (antibody, V domains shown)
VH: QVQLQQSGAELARPGASVKLSCKASGYTFTDNYINWMKQRPGQGLEWIGEIYPGSGNTYYNEKFKGKATLTADKSSSTAYMQLSSLTSEESAVYFCARSPNLRLYYFDYWGQGTTLTVSS
VL: DIVMTQSPATLSVTPGDRVSLSCRASQSINDYLYWYQQKLHESPRLLIKFASHSISGIPSRFSGSGSGSDFTLSINSVEPEDVGVYYCQNGHSFPLTFGAGTKLELK
notes: Hybridoma monoclonal antibody detected with goat anti-mouse IgG; also called ligand-independent HER3 antibody

binding result [1]: binds
binding result [2]: binds
B2: 3D4 antibody (antibody, V domains shown)
VH: QVQLQQSGPELVKPGASVRISCKASGYTFTNYFLHWMKQRPGQGLEWIGWIYPGNVNTKYSEKFKGKATLTADKSSSTAYMQLSSLTSEDSAVYFCARSTYYSMDYWGQGTSVTVSS
VL: DIVLTQSPASLAVSLGQRATISCRASESVDSYGNSFMNWYQQKPGQPPKVLIYRASNLESGIPARFSGSGSRTDFTLTITPVEADDVATYYCQQSYEDPPTFGGGTKLEIK
notes: Mouse monoclonal antibody raised against human HER3 expressing SP 2/0 cells; also called ligand-dependent HER3 antibody
